Like-named read-outs stand apart in the source and are kept apart here.
T1: p47-UBX domain (Homo sapiens, biotin (site not stated) where anchored on the BLI sensor tip)
T1 chain: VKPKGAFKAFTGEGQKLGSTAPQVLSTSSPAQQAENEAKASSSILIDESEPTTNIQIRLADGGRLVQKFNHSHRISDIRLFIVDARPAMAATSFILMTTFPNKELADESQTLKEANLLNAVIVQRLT

T2: p37-UBX domain (Homo sapiens)
T2 chain: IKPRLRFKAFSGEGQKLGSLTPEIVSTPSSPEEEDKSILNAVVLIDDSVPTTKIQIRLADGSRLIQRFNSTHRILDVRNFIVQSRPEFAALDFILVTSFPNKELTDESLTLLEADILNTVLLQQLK

T3: C-terminal Halo-tagged p47-UBX domain (Homo sapiens)
T3 chain: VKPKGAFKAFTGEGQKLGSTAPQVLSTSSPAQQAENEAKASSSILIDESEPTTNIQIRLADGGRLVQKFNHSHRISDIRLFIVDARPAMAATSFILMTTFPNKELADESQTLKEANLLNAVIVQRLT


What was measured:
[1] = biological target: full-length p47 (human, UniProt Q9UNZ2); assay: SPR; competition: as for p47-UBX but with full-length p47 on immobilised p97 (Figure S7); conditions: both partners purified
[2] = biological target: T1, p47-UBX domain; assay: SPR; competition: biotinylated full-length p97 on a streptavidin chip; mixture of increasing concentrations of scFv and a fixed concentration of p47-UBX flowed over; with 100 uM ATP or 100 uM ADP; conditions: both partners purified
[3] = biological target: full-length human p97 (human, UniProt P55072 1-806, biotin (site not stated)); assay: SPR; competition: as for p47-UBX but with full-length p47 on immobilised p97 (Figure S7); conditions: both partners purified
Chain of full-length human p97 (P55072 whole entry, the tested form may be a part): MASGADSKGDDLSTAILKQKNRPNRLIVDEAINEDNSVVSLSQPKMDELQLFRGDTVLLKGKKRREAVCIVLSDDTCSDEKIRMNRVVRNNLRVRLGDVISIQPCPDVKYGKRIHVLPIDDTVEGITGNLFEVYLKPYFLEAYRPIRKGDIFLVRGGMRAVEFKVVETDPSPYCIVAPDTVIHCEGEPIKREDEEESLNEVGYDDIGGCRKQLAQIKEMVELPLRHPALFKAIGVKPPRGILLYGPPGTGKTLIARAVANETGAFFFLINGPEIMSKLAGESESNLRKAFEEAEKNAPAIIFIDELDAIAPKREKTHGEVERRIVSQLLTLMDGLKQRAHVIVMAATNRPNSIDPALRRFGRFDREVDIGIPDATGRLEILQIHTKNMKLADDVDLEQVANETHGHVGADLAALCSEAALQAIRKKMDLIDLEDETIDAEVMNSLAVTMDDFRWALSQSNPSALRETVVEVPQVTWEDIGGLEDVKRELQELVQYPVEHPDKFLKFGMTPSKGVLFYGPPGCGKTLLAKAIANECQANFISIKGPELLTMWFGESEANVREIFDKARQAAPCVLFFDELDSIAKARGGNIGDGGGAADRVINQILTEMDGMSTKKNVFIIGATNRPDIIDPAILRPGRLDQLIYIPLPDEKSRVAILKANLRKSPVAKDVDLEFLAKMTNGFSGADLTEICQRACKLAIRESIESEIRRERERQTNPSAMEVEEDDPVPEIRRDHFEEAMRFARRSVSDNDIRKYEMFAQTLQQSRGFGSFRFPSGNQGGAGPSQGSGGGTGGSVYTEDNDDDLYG

[4] = biological target: T1, p47-UBX domain; assay: BLI; biotinylated p47-UBX anchored on the sensor tip; increasing amounts of each scFv; dose-response profiles; conditions: both partners purified
[5] = biological target: T2, p37-UBX domain; assay: BLI; selectivity of the scFvs against the p97-binding domains of other adaptor proteins (NPL4-UBXL, FAF1-UBX, p37-UBX) beside p47-UBX; set-up not told in the main text; conditions: both partners purified
[6] = biological target: p97 (endogenous) (human (endogenous in U2OS), UniProt P55072); assay: co-IP; co-IP of p97 from U2OS cells expressing scFv-A06 (Figure S10); conditions: partners not purified
Chain of p97 (endogenous) (P55072 whole entry, the tested form may be a part): as above

[7] = biological target: p47 (endogenous) (human (endogenous in U2OS), UniProt Q9UNZ2); assay: co-IP; co-IP of p47 from lysates of U2OS cells transfected with plasmids for HA-tagged antibody fragments; p47-containing complexes captured and blotted; conditions: partners not purified
[8] = biological target: T3, C-terminal Halo-tagged p47-UBX domain; assay: FRET or BRET; NanoBRET in p47-knockout U2OS cells: Nanoluciferase-p97-N donor, p47-UBX-HaloTag acceptor, co-transfected with antibody-fragment or p47-FLAG plasmids; compared with scFv-RNase and scFab-RNase controls; conditions: partners not purified
[9] = biological target: T1, p47-UBX domain

binding result [1]	binding result [7]	Binder	also measured
binds	–	scFv-G08 (scFv, V domains shown) VH: QVQLVESGGGLVQPGGSLRLSCAASGFNISYSYIHWVRQAPGKGLEWVAYIYPYSGSTYYADSVKGRFTISADTSKNTAYLQMNSLRAEDTAVYYCARDPHWAMDYWGQGTLVTVSS VL: DIQMTQSPSSLSASVGDRVTITCRASQSVGSALAWYQQKPGKAPKLLIYSASSLYSGVPSRFSGSRSGTDFTLTISSLQPEDFATYYCQQSFSSVPFTFGQGTKVEIK	binding result [2]: binds
–	–	full-length p47 (natural protein, human, UniProt Q9UNZ2 1-370, looked up) MAAERQEALREFVAVTGAEEDRARFFLESAGWDLQIALASFYEDGGDEDIVTISQATPSSVSRGTAPSDNRVTSFRDLIHDQDEDEEEEEGQRFYAGGSERSGQQIVGPPRKKSPNELVDDLFKGAKEHGAVAVERVTKSPGETSKPRPFAGGGYRLGAAPEEESAYVAGEKRQHSSQDVHVVLKLWKSGFSLDNGELRSYQDPSNAQFLESIRRGEVPAELRRLAHGGQVNLDMEDHRDEDFVKPKGAFKAFTGEGQKLGSTAPQVLSTSSPAQQAENEAKASSSILIDESEPTTNIQIRLADGGRLVQKFNHSHRISDIRLFIVDARPAMAATSFILMTTFPNKELADESQTLKEANLLNAVIVQRLT	binding result [3]: binds
binds	–	scFv-A06 (scFv, V domains shown) VH: QVQLVESGGGLVQPGGSLRLSCAASGFNISSYSMHWVRQAPGKGLEWVASISSSYGSTYYADSVKGRFTISADTSKNTAYLQMNSLRAEDTAVYYCARSDWYYGDAWGVPYYAFDYWGQGTLVTVSS VL: DIQMTQSPSSLSASVGDRVTITCRASQSVGSALAWYQQKPGKAPKLLIYSASSLYSGVPSRFSGSRSGTDFTLTISSLQPEDFATYYCQQSWFLITFGQGTKVEIK	Kd [4]: ~3 nM; binding result [5]: no binding
binds	–	scFv-B01 (scFv, V domains shown) VH: QVQLVESGGGLVQPGGSLRLSCAASGFNISSYYMHWVRQAPGKGLEWVASIYPSYSSTSYADSVKGRFTISADTSKNTAYLQMNSLRAEDTAVYYCARSSDYDRYWYWSYDAFDYWGQGTLVTVSS VL: DIQMTQSPSSLSASVGDRVTITCRASQSVGSALAWYQQKPGKAPKLLIYSASSLYSGVPSRFSGSRSGTDFTLTISSLQPEDFATYYCQQSWDLFTFGQGTKVEIK	binding result [2]: binds
–	binds	scFv-A06 with C-terminal HA tag, expressed in cells (scFv, V domains shown) VH: QVQLVESGGGLVQPGGSLRLSCAASGFNISSYSMHWVRQAPGKGLEWVASISSSYGSTYYADSVKGRFTISADTSKNTAYLQMNSLRAEDTAVYYCARSDWYYGDAWGVPYYAFDYWGQGTLVTVSS VL: DIQMTQSPSSLSASVGDRVTITCRASQSVGSALAWYQQKPGKAPKLLIYSASSLYSGVPSRFSGSRSGTDFTLTISSLQPEDFATYYCQQSWFLITFGQGTKVEIK	binding result [6]: binds; reduction of the BRET ratio of the p97-N/p47-UBX pair [8]: ~15%
–	binds	scFab-A06 with C-terminal HA tag, expressed in cells (Fab, V domains shown) VH: EVQLVESGGGLVQPGGSLRLSCAASGFNISSYSMHWVRQAPGKGLEWVASISSSYGSTYYADSVKGRFTISADTSKNTAYLQMNSLRAEDTAVYYCARSDWYYGDAWGVPYYAFDYWGQGTLVTVSS VL: DIQMTQSPSSLSASVGDRVTITCRASQSVGSALAWYQQKPGKAPKLLIYSASSLYSGVPSRFSGSRSGTDFTLTISSLQPEDFATYYCQQSWFLITFGQGTKVEIK	–
–	binds	scFab-NLS A06 with C-terminal HA tag, expressed in cells (Fab, V domains shown) VH: EVQLVESGGGLVQPGGSLRLSCAASGFNISSYSMHWVRQAPGKGLEWVASISSSYGSTYYADSVKGRFTISADTSKNTAYLQMNSLRAEDTAVYYCARSDWYYGDAWGVPYYAFDYWGQGTLVTVSS VL: DIQMTQSPSSLSASVGDRVTITCRASQSVGSALAWYQQKPGKAPKLLIYSASSLYSGVPSRFSGSRSGTDFTLTISSLQPEDFATYYCQQSWFLITFGQGTKVEIK	–
–	–	scFv-A04 (antibody, V domains shown) VH: QVQLVESGGGLVQPGGSLRLSCAASGFNVYSSSIHWVRQAPGKGLEWVASIYPSYGSTYYADSVKGRFTISADTSKNTAYLQMNSLRAEDTAVYYCARSYEWKYSYYRGGFDYWGQGTLVTVSS VL: DIQMTQSPSSLSASVGDRVTITCRASQSVSSAVAWYQQKPGKAPKLLIYSASSLYSGVPSRFSGSRSGTDFTLTISSLQPEDFATYYCQQGYYLPVTFGQGTKVEIK	binding result [9]: binds
–	binds	scFab-NLS E04 with C-terminal HA tag, expressed in cells (Fab, V domains shown) VH: EVQLVESGGGLVQPGGSLRLSCAASGFNFSSYSIHWVRQAPGKGLEWVASISPYYGSTYYADSVKGRFTISADTSKNTAYLQMNSLRAEDTAVYYCARYKYYMSGRYTWALDYWGQGTLVTVSS VL: DIQMTQSPSSLSASVGDRVTITCRASQSVSSAVAWYQQKPGKAPKLLIYSASSLYSGVPSRFSGSRSGTDFTLTISSLQPEDFATYYCQQEFFVPFTFGQGTKVEIK	–
binds	–	scFv-E04 (scFv, V domains shown) VH: QVQLVESGGGLVQPGGSLRLSCAASGFNFSSYSIHWVRQAPGKGLEWVASISPYYGSTYYADSVKGRFTISADTSKNTAYLQMNSLRAEDTAVYYCARYKYYMSGRYTWALDYWGQGTLVTVSS VL: DIQMTQSPSSLSASVGDRVTITCRASQSVSSAVAWYQQKPGKAPKLLIYSASSLYSGVPSRFSGSRSGTDFTLTISSLQPEDFATYYCQQEFFVPFTFGQGTKVEIK	Kd [4]: ~7 nM; Kd [5]: ~4 nM
–	binds	scFab-E04 with C-terminal HA tag, expressed in cells (Fab, V domains shown) VH: EVQLVESGGGLVQPGGSLRLSCAASGFNFSSYSIHWVRQAPGKGLEWVASISPYYGSTYYADSVKGRFTISADTSKNTAYLQMNSLRAEDTAVYYCARYKYYMSGRYTWALDYWGQGTLVTVSS VL: DIQMTQSPSSLSASVGDRVTITCRASQSVSSAVAWYQQKPGKAPKLLIYSASSLYSGVPSRFSGSRSGTDFTLTISSLQPEDFATYYCQQEFFVPFTFGQGTKVEIK	–
–	binds	scFv-E04 with C-terminal HA tag, expressed in cells (scFv, V domains shown) VH: QVQLVESGGGLVQPGGSLRLSCAASGFNFSSYSIHWVRQAPGKGLEWVASISPYYGSTYYADSVKGRFTISADTSKNTAYLQMNSLRAEDTAVYYCARYKYYMSGRYTWALDYWGQGTLVTVSS VL: DIQMTQSPSSLSASVGDRVTITCRASQSVSSAVAWYQQKPGKAPKLLIYSASSLYSGVPSRFSGSRSGTDFTLTISSLQPEDFATYYCQQEFFVPFTFGQGTKVEIK	–
